Measured values from patent US20240376151A1, “STAPLED PEPTIDES AND METHODS THEREOF” (FOG PHARMACEUTICALS, INC., priority 2022, published 2024).

Molecular target: T1, RNF31 PUB domain (Homo sapiens, UniProt Q96EP0)
T1 construct: MBP-TEV (N, cleaved yes); made in house; host or cells: E. coli BL21 (DE3) pLysS
T1 sequence (Q96EP0 1-179): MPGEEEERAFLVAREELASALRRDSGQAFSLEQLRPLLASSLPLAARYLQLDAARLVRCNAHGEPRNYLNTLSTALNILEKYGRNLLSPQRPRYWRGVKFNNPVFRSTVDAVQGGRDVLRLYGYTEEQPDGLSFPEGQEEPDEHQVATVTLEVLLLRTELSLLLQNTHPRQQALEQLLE
Test: Phage Library Screening with NGS, RNF31 PUB domain
Type: binding
Settings: for Phage library screen NGS readout, Target Concentration 10 / Phage library screen NGS readout, Target Concentration 30 / Phage library screen NGS readout, Target Concentration 100 / Phage library screen NGS readout, Target Concentration 300 / Phage library screen NGS readout, Target Concentration 1000: RNF31 PUB domain clusters C41-C45; for Phage library screen NGS readout, BLANK: clusters C41-C45

[1] = target concentration 1000, first column
[2] = target concentration 1000, second column

Sequence | Phage library screen NGS readout, Target Concentration 10 | Phage library screen NGS readout, Target Concentration 30 | Phage library screen NGS readout, Target Concentration 100 | Phage library screen NGS readout, Target Concentration 300 | Phage library screen NGS readout, Target Concentration 1000 [1] | Phage library screen NGS readout, Target Concentration 1000 [2] | Phage library screen NGS readout, BLANK (column 1 of 5) | Phage library screen NGS readout, BLANK (column 2 of 5) | Phage library screen NGS readout, BLANK (column 3 of 5) | Phage library screen NGS readout, BLANK (column 4 of 5) | Phage library screen NGS readout, BLANK (column 5 of 5)
DPAYDWCMYAAHECVDQ | 0 | 0 | 0 | 3 | 3 | 8 | 0 | 0 | 0 | 1 | 0
DPAYDWCMYAAYNCVED | 2 | 1 | 1 | 6 | 41 | 38 | 0 | 0 | 0 | 0 | 0
DPAYDYCLYAAQDCVWW | 0 | 0 | 0 | 1 | 6 | 5 | 0 | 0 | 0 | 0 | 0
DPAYDYCLYAAYDCTQT | 0 | 0 | 1 | 5 | 48 | 38 | 1 | 0 | 0 | 1 | 0
DPAYEDCADAAMYCDMD | 0 | 0 | 0 | 0 | 11 | 10 | 1 | 0 | 0 | 0 | 0
DPAYEDCAWAALYCDMT | 0 | 0 | 0 | 10 | 70 | 64 | 0 | 0 | 0 | 0 | 0
DPAYRDCDWAALYCDDF | 0 | 0 | 1 | 2 | 12 | 12 | 0 | 3 | 0 | 0 | 1
DPAYSLCISAAVECTYY | 0 | 1 | 0 | 2 | 6 | 7 | 0 | 0 | 0 | 0 | 0
DPAYSSCSWAAIYCNWT | 1 | 1 | 5 | 2 | 7 | 4 | 1 | 1 | 4 | 2 | 1
